Source: patent US20080207488A1, “Method for Detecting Peptides Comprising a Cross-B Structure” (priority 2005, published 2008)

Assays:
[1] = Thioflavin T fluorescence; type: physicochemical; conditions: for Fluorescence (a.u. +/− SD) ThT: marketed biopharmaceutical within expiry limits, five μL tested
Experimental: Fluorescence of ThT-protein/peptide adducts was measured as follows. […] Fluorescence was measured at 485 nm upon excitation at 435 nm. Background signals from buffer, buffer with ThT and protein/peptide solution without ThT were subtracted from corresponding measurements with protein solution incubated with ThT. […] Fluorescence was measured in triplicate on a Hitachi F-4500 fluorescence spectrophotometer (Ltd., Tokyo, Japan).
(§1) Formulated protein therapeutics were obtained from the local hospital pharmacy and were used as supplied by the manufacturers. […] Lyophilized therapeutics were dissolved according to the manufacturers recommendations. […] Other protein therapeutics were only kept at 4° C., and assayed for the presence of cross-β structure conformation at shown time points. Enhancement in fluorescence of ThT and Congo red was measured with all formulated protein therapeutics. For this purpose, proteins were diluted to the indicated concentrations. […] Zinc-insulin was diluted tenfold in the activation assay, GH was diluted to a final concentration of 500 μg ml^−1. Activation of factor XII and prekallikrein by the therapeutics was tested in the chromogenic factor XII assay (see above). […] After coating, plates were blocked with Blocking Reagent (Roche Diagnostics, Almere, The Netherlands).
To prepare structurally altered ovalbumin (OVA) with amyloid cross-β structure conformation, purified OVA (Sigma, A-7641, lot 071k7094) was heated to 85° C. One mg ml^−1 OVA in 67 mM NaPi buffer pH 7.0, 100 mM NaCl, was heated for two cycles in PCR cups in a PTC-200 thermal cycler (MJ Research, Inc., Waltham, Mass., USA). In each cycle, OVA was heated from 30 to 85° C. at a rate of 5° C./min. Native OVA (nOVA) and heat-denatured OVA (dOVA) were tested in the ThT fluorescence assay and in the Plg-activation assay. In the fluorescence assay and in the Plg-activation assay, 25 and 100 μg ml^−1 nOVA and dOVA were tested, respectively. TEM images of nOVA and dOVA were taken to check for the presence of large aggregates. […] MSA (#126674, Calbiochem) was dissolved in 8 M urea, 100 mM Tris-HCl pH 8.2, at 10 mg ml^−1 final concentration. Dithiothreitol (DTT) was added to a final concentration of 10 mM. Air was replaced by N2 and the solution was incubated for 2 h at room temperature. Then, the solution was transferred to ice and iodoacetamide was added from a 1 M stock to a final concentration of 20 mM. […] Alkyl-MSA was dialyzed against H2O before use. […] In the ThT-fluorescence assay 25 μg ml^−1 nMSA and alkyl-MSA were tested, and in the Plg-activation assay 100 μg ml^−1 was tested. The presence of aggregates or fibrils was analyzed using TEM. […]
(§2) Protein therapeutics were obtained from the local hospital pharmacy and analyzed within the expiry limits as stated by the manufacturers.

tPA [2] = molecular target: T1, tPA (Homo sapiens, UniProt P00750); experiment: Plasminogen-activation assay (tPA-mediated Plg to Pls, S-2251); type: biochemical; conditions: FIG. 6E, G
T1 construct: purchased Boehringer-Ingelheim (Actilyse, Alteplase)
Experimental: (§3) Plasmin (Pls) activity was assayed as described^7. Peptides and proteins that were tested for their stimulatory ability were regularly used at 100 μg ml^−1. […] Chromogenic substrate S-2251 (Chromogenix, Instrumentation Laboratory SpA, Milano, Italy) was used to measure Pls activity. Conversion of zymogen factor XII (#233490, Calbiochem, EMD Biosciences, Inc., San Diego, Calif.) to proteolytically active factor XII (factor XIIa) was assayed by measurement of the conversion of chromogenic substrate Chromozym-PK (Roche Diagnostics, Almere, The Netherlands) by kallikrein. Chromozym-PK was used at a concentration of 0.3 mM. Factor XII, human plasma prekallikrein (#529583, Calbiochem) and human plasma cofactor high-molecular weight kininogen (#422686, Calbiochem) were used at concentrations of 1 μg ml^−1. […] Assays were performed using microtiter plates (Costar, Cambridge, Mass., USA). Peptides and proteins were tested for their ability to activate factor XII. 150 μg ml^−1 kaolin, an established activator of factor XII was used as positive control and solvent (H2O) as negative control. The conversion of Chromozym-PK was recorded kinetically at 37° C. for at least 60 minutes. Assays were done in duplicate. […] Alternatively, chromogenic substrate S-2222 (Chromogenix) was used to follow the activity of factor XII itself. With S-2222, activation of factor XII in plasma was measured, using 60% v/v plasma, diluted with substrate and H2O with or without potential cofactor. Furthermore, auto-activation of factor XII was measured by incubating 53 μg ml^−1 purified factor XII in 50 mM Tris-HCl buffer pH 7.5 with 1 mM EDTA and 0.001% v/v Triton-X100, with S-2222 and H2O with or without potential cofactor.
as §1
Purification of β2-glycoprotein I (β2GPI) was performed according to established methods^11,12. Recombinant human β2GPI was made using insect cells and purified as described^11. Plasma derived β2GPI as used in a factor XII ELISA, the chromogenic Plg-activation assay and in the anti-phospholipid syndrome antibody ELISA (see below), was purified from fresh human plasma as described^12.
To prepare structurally altered ovalbumin (OVA) with amyloid cross-β structure conformation, purified OVA (Sigma, A-7641, lot 071k7094) was heated to 85° C. One mg ml^−1 OVA in 67 mM NaPi buffer pH 7.0, 100 mM NaCl, was heated for two cycles in PCR cups in a PTC-200 thermal cycler (MJ Research, Inc., Waltham, Mass., USA). In each cycle, OVA was heated from 30 to 85° C. at a rate of 5° C./min. Native OVA (nOVA) and heat-denatured OVA (dOVA) were tested in the ThT fluorescence assay and in the Plg-activation assay. In the fluorescence assay and in the Plg-activation assay, 25 and 100 μg ml^−1 nOVA and dOVA were tested, respectively. TEM images of nOVA and dOVA were taken to check for the presence of large aggregates. […] MSA (#126674, Calbiochem) was dissolved in 8 M urea, 100 mM Tris-HCl pH 8.2, at 10 mg ml^−1 final concentration.

tPA [3] = molecular target: T1, tPA; experiment: tPA/plasminogen activation assay (400 pM tPA); type: biochemical; conditions: % of standardized positive control (denatured γ-globulins 100 μg/ml); 1:10 diluted samples
Experimental: β2-GPI was reduced and alkylated as follows. Six hundred forty μl of β2-GPI stock was mixed with 640 μl of 8 M Urea (cooled solution) in 0.1 M Tris pH=8.2. The solution was degassed with N2 gas for approximately 6 minutes. From a 1 M DTT stock 12.8 μl was added to the solution, mixed and incubated for 3 hours at room temperature. A 1 M Iodoacetamide (Sigma; 1-6125) was prepared, of which 25.6 μl was added to the β2-GPI reaction mixture. The solution was subsequently dialysed against PBS. […] Signals obtained with alkyl-62gpi are compared with those obtained with native β2gpi starting material.
Exiqon Peptide Immobilizer plates were blocked for 1 hour with PBS, 1% Tween20 and rinsed twice with distilled water. The conversion of the chromogenic substrate S-2251 (Chromogenix, Italy) by plasmin was kinetically measured at 37° C. on a Spectramax340 microplate reader at a wavelength of 405 nm. […] Denatured γ-globulins (100 μg/ml) with amyloid-like structure was used as reference and positive control. Lyophilized γ-globulins (Sigma, MO, USA) were dissolved in a 1(:)1 volume ratio of 1,1,1,3,3,3-hexafluoro-2-propanol and trifluoro-acetic acid and subsequently dried under air. Dried γ-globulins was dissolved in H2O to a final concentration of 1 mg/ml and kept at room temperature for at least three days and subsequently stored at −20° C.
as §2

[4] = Stability testing of biopharmaceuticals under denaturing conditions (ThT fluorescence, tPA activation); type: physicochemical; conditions: ThT at 25 μg/mL, tPA activation at 100 μg/mL
Experimental: To mimic accelerated stability testing several therapeutics were exposed to denaturing conditions and assayed for amyloid-like properties before and after treatment by tPA activation assay at 100 μg/mL protein and ThT fluorescence enhancement assay at 25 μg/mL protein. For this purpose, 5 mg/mL Glucagon (Glucagen; Novo Nordisk Farma B.V., Alphen aan de Rijn, The Netherlands) was incubated at 37° C. in 0.01 M HCl for 48 hours. One mg/mL Etanercept (Enbrel; Wyeth Pharmaceuticals B.V., Hoofddorp, The Netherlands) in 67 mM sodium phosphate buffer, 100 mM NaCl pH 7.0 was gradually heated from 30° C. to 85° C. over a period of 12 minutes and afterwards cooled to 4° C. for 5 minutes, this treatment was repeated 4 times. Abciximab (Reopro; Centocor B.V., Leiden, The Netherlands) and Infliximab (Remicade; Schering-Plough B.V., Utrecht, The Netherlands) were incubated at 65° C. for 16 and 72 hours, respectively.

Congo red fluorescence = type: physicochemical
Experimental: Background signals from buffer, buffer with Congo red and protein/peptide solution without Congo red were subtracted from corresponding measurements with protein solution incubated with Congo red. Fluorescence was measured in triplicate on a Hitachi F-4500 fluorescence spectrophotometer (Ltd., Tokyo, Japan).
as §1, §2

factor XII = molecular target: T2, factor XII (Homo sapiens, UniProt P00748); experiment: Chromogenic factor XII/prekallikrein activation assay (Chromozym-PK); type: biochemical
T2 construct: purchased Calbiochem, EMD Biosciences #233490
T2 sequence (P00748 20-615): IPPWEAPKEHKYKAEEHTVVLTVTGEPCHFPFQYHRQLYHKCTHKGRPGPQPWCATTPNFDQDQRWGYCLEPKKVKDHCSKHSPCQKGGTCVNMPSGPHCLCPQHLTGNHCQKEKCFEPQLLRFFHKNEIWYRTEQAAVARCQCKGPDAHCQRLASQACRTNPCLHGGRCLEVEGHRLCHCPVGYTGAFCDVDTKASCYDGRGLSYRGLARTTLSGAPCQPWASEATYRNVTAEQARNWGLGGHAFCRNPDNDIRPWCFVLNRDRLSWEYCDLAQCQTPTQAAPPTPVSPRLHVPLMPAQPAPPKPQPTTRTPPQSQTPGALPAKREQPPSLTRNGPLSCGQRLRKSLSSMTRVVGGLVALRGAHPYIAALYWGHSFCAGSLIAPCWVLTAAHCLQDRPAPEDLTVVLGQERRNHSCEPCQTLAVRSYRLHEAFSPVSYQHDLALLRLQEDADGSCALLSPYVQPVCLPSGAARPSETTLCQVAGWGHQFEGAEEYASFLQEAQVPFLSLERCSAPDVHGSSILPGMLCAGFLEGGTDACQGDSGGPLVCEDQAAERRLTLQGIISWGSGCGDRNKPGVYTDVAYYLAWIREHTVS
Experimental: as §3, §1

tPA [5] = molecular target: T1, tPA; experiment: tPA ELISA with coated protein therapeutics; type: binding; conditions: 5 μg ml^−1 coated, stored at 4° C.
Experimental: as §1

T1 sequence (P00750 36-562): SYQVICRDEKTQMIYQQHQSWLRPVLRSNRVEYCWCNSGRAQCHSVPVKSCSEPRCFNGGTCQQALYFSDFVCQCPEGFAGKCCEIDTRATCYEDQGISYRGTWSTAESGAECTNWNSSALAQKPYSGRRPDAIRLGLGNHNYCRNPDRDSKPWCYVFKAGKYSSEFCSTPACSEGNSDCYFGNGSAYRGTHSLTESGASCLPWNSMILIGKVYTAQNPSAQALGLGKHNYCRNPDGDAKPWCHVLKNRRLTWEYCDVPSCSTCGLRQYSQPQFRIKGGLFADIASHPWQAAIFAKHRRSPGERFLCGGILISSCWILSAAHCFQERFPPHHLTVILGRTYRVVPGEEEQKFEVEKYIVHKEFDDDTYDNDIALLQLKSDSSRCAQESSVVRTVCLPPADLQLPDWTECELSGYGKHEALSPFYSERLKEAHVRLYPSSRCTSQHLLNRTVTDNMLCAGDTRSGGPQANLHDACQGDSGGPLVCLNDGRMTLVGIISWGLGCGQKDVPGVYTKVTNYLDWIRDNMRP

Row | Substance | ThT fluorescence enhancement of native and denatured proteins ([1]; 25 μg ml^−1) | Fluorescence (a.u. +/− SD) ThT [1] | tPA activating potential of native and denatured glucagon and Etanercept (tPA [2]) | tPA activation Max. Activation (%) (tPA [3]) | amyloid-like properties after exposure to harsh denaturing conditions (low pH, heat) [4] | Fluorescence (a.u. +/− SD) CR (Congo red fluorescence; marketed biopharmaceutical within expiry limits, five μL tested) | factor XII activation by gelatin (factor XII; kept at 37° C.) | factor XII/prekallikrein activation by protein therapeutics (factor XII; stored at 4° C.) | Congo red fluorescence of gelatin (Congo red fluorescence; stored at 4° C. and 37° C.) | enhancement of Congo red fluorescence (Congo red fluorescence; therapeutics stored at 4° C.) | binding of tPA to immobilized therapeutic (tPA [5])
1 | Etanercept | gave some ThT fluorescence enhancement | 23 +/− 3 a.u. | induces some tPA activation | 0% | amyloid-like properties are adopted |  |  |  |  |  | 
2 | Glucagon: human glucagon (Glucagen, Novo Nordisk) |  | 48 +/− 1 a.u. | has some tPA activating potential | 11.25% | amyloid-like properties are adopted |  |  |  |  |  | 
3 | Infliximab: human-murine chimeric monoclonal antibody (Remicade-infliximab) |  | 19 +/− 1 a.u. |  | 0% | amyloid-like properties are adopted | 67 +/− 2 a.u. |  |  |  |  | 
4 | gelatin |  |  |  |  |  |  | activated factor XII | not | enhanced Congo red fluorescence in a storage temperature dependent manner | enhanced the fluorescence of Congo red | binding of tPA was established
